Measured values: patent US20030148958A1 (PROCTER AND GAMBLE, published 2003)
Ends that are not written are not given here.

T1: CRF2R
T1 sequence (Q13324 whole entry, species assumed, looked up): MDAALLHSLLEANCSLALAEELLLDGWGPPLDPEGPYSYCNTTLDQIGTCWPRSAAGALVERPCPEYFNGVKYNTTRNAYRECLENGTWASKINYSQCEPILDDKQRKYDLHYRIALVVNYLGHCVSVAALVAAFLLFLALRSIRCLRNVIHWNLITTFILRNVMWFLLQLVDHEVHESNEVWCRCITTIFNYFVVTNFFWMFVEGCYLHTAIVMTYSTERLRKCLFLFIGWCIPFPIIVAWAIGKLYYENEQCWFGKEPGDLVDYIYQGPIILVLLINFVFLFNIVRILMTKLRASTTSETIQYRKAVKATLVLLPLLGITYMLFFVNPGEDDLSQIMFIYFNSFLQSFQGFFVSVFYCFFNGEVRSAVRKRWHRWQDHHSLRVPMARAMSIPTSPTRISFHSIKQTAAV


Tests used:
[1] = target: CRF1R; assay: cell-based or functional assay
[2] = target: T1, CRF2R; assay: cell-based or functional assay
For CRF1R Emax % in this document: reference of the scale not given here.
For CRF2R Emax % in this document: reference of the scale not given here.

CRF1R EC50 [1]	CRF1R Emax % [1]	CRF2R EC50 [2]	CRF2R Emax % [2]	Binder
1 µM	75.7%	0.0221 µM	100%	ZGPPISIDLPFQLLRKVIEIEKQEKEKQQAANNAQLLAQI (not fully specified; C-terminal amide) [SEQ ID NO 276]
1 µM	11.8%	0.1 µM	82.3%	ZGPPISIDLPIFLLRKVIEIEKQEKEKQQAANNALLLATI (not fully specified; C-terminal amide) [SEQ ID NO 280]
1 µM	39.9%	0.0282 µM	100%	ZGPPISIDLPFQLLRKVIEIEKQEKEKQQAANNAHLLAHI (C-terminal amide) [SEQ ID NO 277]
1 µM	38.3%	0.0466 µM	100%	ZGPPISIDLPFQLLRKVIEIEKQEKEKQQAANNANLLANI (not fully specified; C-terminal amide) [SEQ ID NO 275]
1 µM	12.2%	0.1 µM	78.8%	ZGPPISIDLPIFLLRKVIEIEKQEKEKQQAANNARLLARI (C-terminal amide) [SEQ ID NO 281]
1 µM	21.8%	0.0258 µM	60.8%	ZGPPISIDLPIFLLRKMIEIEKQEKEKQQAANNARLLARI (not fully specified; C-terminal amide) [SEQ ID NO 282]
1 µM	11.1%	0.0139 µM	97.1%	ZGPPISIDLPQILLRKMIEIEKQEKEKQQAANNARLLARI (C-terminal amide) [SEQ ID NO 285]
1 µM	93%	0.0131 µM	100%	ZGPPISIDLPFQLLRKVIEIEKQEKEKQQAANNARLLARI (not fully specified; C-terminal amide) [SEQ ID NO 279]
0.635 µM	100%	0.0106 µM	72%	ZGPPISIDLPYQLLRKVIEIEKQEKEKQQAANNRLLLDTI (C-terminal amide) [SEQ ID NO 283]
1 µM	48.7%	0.0196 µM	100%	ZGPPISIDLPFQLLRKVIEIEKQEKEKQQAANNARLLDTI (C-terminal amide) [SEQ ID NO 278]
1 µM	27.7%	0.1 µM	100%	ZGPPISIDLPTWLLRKVIEIEKQEKEKQQAANNRLLLDTI (C-terminal amide) [SEQ ID NO 284]

Continued, binder first:

Binder	CRF1R EC50 [1]	CRF1R Emax % [1]	CRF2R EC50 [2]	CRF2R Emax % [2]
ZGPPISIDLPFQLLRKVIEIEKQEKEKQQAANNAELLAEI (not fully specified; C-terminal amide) [SEQ ID NO 272]	1 µM	51.1%	0.0233 µM	100%
ZGPPISIDLPFQLLRKVIEIEKQEKEKQQAANNAKLLAKI (not fully specified; C-terminal amide) [SEQ ID NO 274]	0.508 µM	80.9%	0.0138 µM	100%
ZGPPISIDLPFQLLRKVIEIEKQEKEKQQAANNAQLLAHI (not fully specified; C-terminal amide) [SEQ ID NO 273]	1 µM	59.3%	0.0313 µM	100%
NDDPPISIDLPLILLRNMIEMARIENEREQAGLNAKYLAEV-NH2 [SEQ ID NO 269]	1 µM	44.3%	0.1 µM	77.3%
NDDPPISIDLPFFLLRNMIEMARIENEREQAGLNAKYLAEV-NH2 [SEQ ID NO 264]	0.705 µM	100%	0.1 µM	66.3%
DNPSLSIDLPYYLLRTLLELARTQSQRERAEQNAIIFASV-NH2 [SEQ ID NO 263]	0.802 µM	72%	0.0362 µM	93%
NDDPPISIDLPLFLLRNMIEMARIENEREQAGLNAKYLAEV-NH2 [SEQ ID NO 257]	0.745 µM	83.5%	0.1 µM	72.6%
NDDPPISIDLPLQLLRNMIEMARIENEREQAGLNAKYLAEV-NH2 [SEQ ID NO 270]	1 µM	7.85%	0.1 µM	19.3%
NDDPPISIDLPQYLLRNMIEMARIENEREQAGLNAKYLAEV-NH2 [SEQ ID NO 265]	1 µM	9.3%	0.1 µM	23.4%
NDDPPISIDLPLYLLRNMIEMARIENEREQAGLNAKYLAEV-NH2 [SEQ ID NO 271]	0.815 µM	80.7%	0.0481 µM	69%
NDDPPISIDLPFQLLRNMIEMARIENEREQAGLNAKYLAEV-NH2 [SEQ ID NO 258]	1 µM	23.6%	0.1 µM	49.3%
NDDPPISIDLPLHLLRNMIEMARIENEREQAGLNAKYLAEV-NH2 [SEQ ID NO 259]	0.82 µM	83.6%	0.1 µM	65%
NDDPPISIDLPTYLLRNMIEMARIENEREQAGLNAKYLAEV-NH2 [SEQ ID NO 266]	1 µM	4.45%	0.1 µM	19.4%
NDDPPISIDLPFLLLRNMIEMARIENEREQAGLNAKYLAEV-NH2 [SEQ ID NO 260]	0.834 µM	89.7%	0.1 µM	89.3%
NDDPPISIDLPLLLLRNMIEMARIENEREQAGLNAKYLAEV-NH2 [SEQ ID NO 268]	1 µM	14.2%	0.1 µM	59%
NDDPPISIDLPFYLLRNMIEMARIENEREQAGLNAKYLAEV-NH2 [SEQ ID NO 261]	0.274 µM	100%	0.1 µM	95.3%
NDDPPISIDLPFHLLRNMIEMARIENEREQAGLNAKYLAEV-NH2 [SEQ ID NO 262]	0.408 µM	100%	0.1 µM	92.2%
NDDPPISIDLPYYLLRNMIEMARIENEREQAGLNAKYLAEV-NH2 [SEQ ID NO 267]	1 µM	22.8%	0.1 µM	44.2%
ZGPPISIDVPFQLLRKMIEIEKQEKEKQQAANNRLLLDTI (C-terminal amide) [SEQ ID NO 256]	0.254 µM	100%	0.0126 µM	100%
